To fix the notation:
B1: Mis12^101–130 peptide (peptide)
peptide: Ac-TSEEEEQKTARLEELKAKYRENMAMLAHLK-NH2
notes: also called Mis12 peptide; Mis12 T101-K130; source: synthetic peptide, bought: GenScript
B2: CENP-C^1–94 (untagged, recombinant) (domain or fragment, Drosophila melanogaster, UniProt Q9VHP9 1-94, looked up)
chain: MSKPQNNDTLELDDILSQPVKDKERFAAFMMRKLAENKPAQNDNLFGNFKLDFDLDFEVPLIKKSQAKPKSKLPEVQPLGELVSKNSAATEKVN
notes: also called amino-terminal part of CENP-C (residues 1–94); source: E. coli BL21(DE3), co-expressed from Duet vectors; in lysate for Ni-NTA co-purification, then purified (Ni-NTA, SEC)
B3: Nnf1a + Mis12 (both untagged) (complex, Drosophila melanogaster)
chain 1: MEDSEAAFKRHEGVGPKVKQAYEEAIKQIFADLSCADLQAWDAIYQEHEQSALDTESIVDRTRSLMTKVVLEMNRCFFASNDVPNKLQTLEMLKEHFAAYEGKKWNVNTAAPDKLTRPLRMRFLDFSVEFMEQQLASQAKELEIAMAKSNANRERLQHVHDKRLKLTVQMEQQLSQYEKVKTELIKLGEALNDF
chain 2: MDFNSLAYDQKFFNFTAAQLSAEREHIVQDIIKKGIGQIIDKIKTPATAELLEAEKETVERRFQASASKGLKALRELDSKVFHVPPHVLHPEHMFVENQYTSEEEEQKTARLEELKAKYRENMAMLAHLKIEEEKYAAMEDLIQKEIEMQDRVQRSCSSLNITKLKQFWNQVPLQIKKETD
notes: Nnf1a, as m6; Mis12, as m2; co-purified through a His tag on the third co-expressed protein; also called Mis12–Nnf1a dimer; MN dimer; source: E. coli BL21(DE3), co-expressed from Duet vectors; in lysate for Ni-NTA co-purification, then purified (Ni-NTA, SEC); copies: 1 + 1
B4: 6xHis::Nnf1a–Mis12 heterodimer (complex, Drosophila melanogaster)
chain 1: B3 chain 1
chain 2: B3 chain 2
notes: Nnf1a, as m1; Mis12, as m2; 1 : 1 by SEC-MALS; also called MN dimer; MN; source: E. coli BL21(DE3), co-expressed from Duet vectors; in lysate for Ni-NTA co-purification, then purified (Ni-NTA, SEC); copies: 1 + 1
B5: Mis12 (untagged, recombinant) (natural protein, Drosophila melanogaster, UniProt Q9VS01 1-181, looked up)
chain: B3 chain 2
notes: source: E. coli BL21(DE3), co-expressed from Duet vectors; in lysate for Ni-NTA co-purification, then purified (Ni-NTA, SEC)

Data set [1] concerns the target Mis12–Nnf1a–CENP-C^1–94 complex (Drosophila melanogaster) (UniProt Q9VHP9). Briefly: SEC-MALS; complexes already collected from SEC, stored at 4 °C in SEC buffer and re-loaded; two elution peaks, masses by MALS.
In a further data set the target is T1, Nnf1a^122–147 peptide (Drosophila melanogaster, N-terminus acetylated; C-terminus amidated).
T1 construct: also called Peptide Nnf1; Nnf1a R122-A147; source: synthetic peptide, bought: GenScript
T1 peptide: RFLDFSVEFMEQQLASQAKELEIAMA
Briefly: circular dichroism; synthetic peptides alone and in equimolar mixture, 0.1 M PBS pH 7.4, 195–270 nm, room temperature. As to conditions: both partners purified. (Circular dichroism is the unequal absorption of left and right circularly polarised light.)

For data set [2], the target named is B4. Briefly: SEC-MALS; co-expressed, co-purified complexes on Superdex 200 10/300 at 4 °C, 150 mM NaCl, 10 mM Tris/HCl pH 8.0, in-line MALS and refractometer. As to conditions: both partners purified. In general terms: Size exclusion chromatography separates by hydrodynamic size, large species first.
The target in a further data set is T2, 6xHis::CENP-C^1–94 (Drosophila melanogaster, UniProt Q9VHP9 1-94).
T2 construct: also called His-tagged CENP-C 1-94; source: E. coli BL21(DE3)
T2 sequence (looked up): B2 chain
The data set is described as above. The following applies: both partners purified.

For the next data set, the target named is T3, 6xHis::Nsl1 (Drosophila melanogaster, UniProt Q9VYX4 1-183).
T3 construct: residues up to 183 are printed; not the NSL-complex protein of the same name; source: E. coli BL21(DE3), co-expressed from Duet vectors (induced overnight); in lysate for Ni-NTA co-purification, then purified (Ni-NTA, SEC)
T3 sequence (looked up): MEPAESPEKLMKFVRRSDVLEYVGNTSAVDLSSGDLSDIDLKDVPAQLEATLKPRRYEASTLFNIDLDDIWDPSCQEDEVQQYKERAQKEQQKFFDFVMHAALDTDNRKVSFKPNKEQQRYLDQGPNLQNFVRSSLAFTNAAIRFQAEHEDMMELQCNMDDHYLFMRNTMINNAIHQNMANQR
Described as above. As to conditions: both partners purified.

Data set [3] concerns the molecule itself. Briefly: SEC-MALS; complexes already collected from SEC, stored at 4 °C in SEC buffer and re-loaded; two elution peaks, masses by MALS.
A further data set addresses T4, 6xHis::Nnf1a (Drosophila melanogaster, UniProt Q7JZC9 1-194).
T4 construct: written 6xHis::Nnf1a; also called polyhistidine (His)-tagged Nnf1a; source: E. coli BL21(DE3), co-expressed from Duet vectors; in lysate for Ni-NTA co-purification, then purified (Ni-NTA, SEC)
T4 sequence (looked up): B3 chain 1
Briefly: SEC-MALS; co-expressed, co-purified complexes on Superdex 200 10/300 at 4 °C, 150 mM NaCl, 10 mM Tris/HCl pH 8.0, in-line MALS and refractometer. As to conditions: both partners purified.

In data set [1], “Mis12–Nnf1a–CENP-C^1–94 complex (from UniProt Q9VHP9 1-94)” yielded a stoichiometry N of 2.

For B1, the binding result with Nnf1a^122–147 peptide was “binds”. For the molecule B2, the “stoichiometry N” value in data set [2] stood at 1. With B3, the “stoichiometry N” value with 6xHis::CENP-C^1–94 and with 6xHis::Nsl1 was 1 in each case.

Regarding B4, the “stoichiometry N” value in data set [3] worked out at 2. As for B5, the “stoichiometry N” value with 6xHis::Nnf1a was found to be 1.

What is called stoichiometry N is the number of molecules, sites or subunits per partner or assembly.
